Values quoted from earlier work as cited in US20120107229A1, “NOVEL NANO-PROBES FOR MOLECULAR IMAGING AND TARGETED THERAPY OF DISEASES” (priority 2009, published 2012).

Biological target: T1, CD44 (Homo sapiens, UniProt P16070)
T1 construct: host or cells: melanoma cells (collagen fragment only)
T1 sequence (P16070 21-742, species assumed): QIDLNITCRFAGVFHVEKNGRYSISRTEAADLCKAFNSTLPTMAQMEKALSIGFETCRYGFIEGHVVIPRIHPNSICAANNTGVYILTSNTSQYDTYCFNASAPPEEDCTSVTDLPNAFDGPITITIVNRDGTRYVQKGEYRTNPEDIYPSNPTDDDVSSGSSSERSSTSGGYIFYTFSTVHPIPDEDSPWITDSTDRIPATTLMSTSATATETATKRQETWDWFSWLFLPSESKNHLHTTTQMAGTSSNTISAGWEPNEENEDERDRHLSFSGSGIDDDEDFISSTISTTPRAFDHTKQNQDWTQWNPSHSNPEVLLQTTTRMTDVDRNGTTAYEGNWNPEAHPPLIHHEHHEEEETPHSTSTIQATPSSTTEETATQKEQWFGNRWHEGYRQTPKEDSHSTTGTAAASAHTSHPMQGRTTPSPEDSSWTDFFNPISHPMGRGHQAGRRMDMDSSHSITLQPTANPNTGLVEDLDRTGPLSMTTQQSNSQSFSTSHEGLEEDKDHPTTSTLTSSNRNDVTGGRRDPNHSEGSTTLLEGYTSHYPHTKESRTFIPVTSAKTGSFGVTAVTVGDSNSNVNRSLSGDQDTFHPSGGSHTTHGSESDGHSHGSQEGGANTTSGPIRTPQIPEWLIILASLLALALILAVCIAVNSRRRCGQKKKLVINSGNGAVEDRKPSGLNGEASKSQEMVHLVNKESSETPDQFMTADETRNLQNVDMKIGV

In the case of KNNQKSEPLIGRKKT, the “share of the binding of CD44 to intact fibronectin” value (fibronectin digestion and fractionation studies) is listed as 65.5%.

In the case of GVKGDKGNPGWPGAP, the “binding to CD44 on cells” value (melanoma cells) is listed as “found to bind with CD44 on melanoma cells”.
